Source: PMC11250262, “Understanding the genetic complexity of puberty timing across the allele frequency spectrum” (Nature Genetics, 2024)

Target: MC3R-RlucII (human, UniProt P41968 1-323)
Assay: cell-based or functional assay

Chain of MC3R-RlucII (P41968 whole entry): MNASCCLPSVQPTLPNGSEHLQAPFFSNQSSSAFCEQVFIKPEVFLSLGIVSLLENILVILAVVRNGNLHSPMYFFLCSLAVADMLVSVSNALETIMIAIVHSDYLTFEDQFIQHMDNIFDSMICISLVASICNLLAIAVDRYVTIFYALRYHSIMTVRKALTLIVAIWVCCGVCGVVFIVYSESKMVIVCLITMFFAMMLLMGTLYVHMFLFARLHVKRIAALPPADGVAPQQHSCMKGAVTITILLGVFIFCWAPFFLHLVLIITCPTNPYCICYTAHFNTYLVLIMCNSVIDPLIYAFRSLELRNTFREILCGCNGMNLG

NDP-αMSH-stimulated cAMP production (GloSensor, area under the curve) in HEK293 cells cotransfected with GPR83 and MC3R (1:1 ratio), against MC3R alone: 43%
B1: GPR83-Venus (receptor, human, UniProt Q9NYM4-1 17-423, looked up)
chain: TEPHEGRADEQSAEAALAVPNASHFFSWNNYTFSDWQNFVGRRRYGAESQNPTVKALLIVAYSFIIVFSLFGNVLVCHVIFKNQRMHSATSLFIVNLAVADIMITLLNTPFTLVRFVNSTWIFGKGMCHVSRFAQYCSLHVSALTLTAIAVDRHQVIMHPLKPRISITKGVIYIAVIWTMATFFSLPHAICQKLFTFKYSEDIVRSLCLPDFPEPADLFWKYLDLATFILLYILPLLIISVAYARVAKKLWLCNMIGDVTTEQYFALRRKKKKTIKMLMLVVVLFALCWFPLNCYVLLLSSKVIRTNNALYFAFHWFAMSSTCYNPFIYCWLNENFRIELKALLSMCQRPPKPQEDRPPSPVPSFRVAWTEKNDGQRAPLANNLLPTSQLQSGKTDLSSVEPIVTMS
